This test relates to proteins that co-immunoprecipitated with DUX4-CTD constructs expressed in MB135 myoblasts. The test can be described thus: LC-MS of proteins co-immunoprecipitated with DUX4-CTD (Table 1) and western validation. In kind it is binding, human. Also on record: key to 4. mL1dL2 + Dox + IFNG / 4. + IFNG mix / 4. longCTD + Dox + IFNG / 3. + IFNg + Dox longCTD / 3. + Dox longCTD / 3. + IFNG longCTD: peptide-spectrum matches (PSMs) per protein. Particulars: kind of count not given; for 4. + IFNG mix: LC-MS value per protein co-immunoprecipitated from MB135 myoblasts, + IFNG mix sample (no Dox); for 4. mL1dL2 + Dox + IFNG: LC-MS value per protein co-immunoprecipitated with DUX4-CTD construct mL1dL2 in MB135 myoblasts. From the text: As an unbiased method to identify proteins that interact with the C-terminal region of DUX4, liquid chromatography mass spectroscopy (LC-MS) was used to identify proteins that co-immunoprecipitated with DUX4-CTD constructs expressed in MB135 myoblasts. In the first experiment, MB135iDUX4-CTD cells were used, either untreated, treated with doxycycline alone, or with both doxycycline and IFNG. In the second experiment, MB135iDUX4-CTD and MB135iDUX4mL1dL2 cells were used, both treated with doxycycline and IFNG, compared to these two cell lines untreated and combined as a control. Proteins with a minimum of 2 peptide spectrum matches (PSMs) in at least one sample that were identified in both experiments were assigned to one of ten categories (see Methods) to separate candidate interactors from other categories that might be co-purified because of obligate interactions (e.g., proteasome or ribosome) or might be less likely to be physiologically relevant (e.g., cytoskeletal proteins). Candidate interactors were then ranked based on the total PSMs for that protein across all samples.
Centrifugation at 2500 rcf at 4° C. for 5 min pelleted the nuclei, supernatant was discarded, and nuclei resuspended in 1 mL IP buffer pH 7.4 (25 mM Tris-HCl pH 7.5, 175 mM NaCl, 1 mM EDTA, 0.2% NP-40, 5% glycerol) and incubated for 1 hour at 4° C. with rotation then spun at 21000 rcf for 10 minutes at 4° C. to pellet insoluble debris. Protein concentration was determined using the Pierce BCA Protein Assay Kit (ThermoFisher, 23225). An equivalent amount of protein per sample was pre-cleared with Dynabeads Protein G (Invitrogen) bound to mouse IgG (Abcam #131368) for 1 hour at 4° C. with rotation. FLAG-tagged constructs were then immunoprecipitated with Dynabeads Protein G beads coupled to mouse anti-FLAG M2 mAb (Sigma F3165) for 3 hours at 4° C. with rotation. Beads were washed 3× with 1 mL IP buffer and eluted by adding 2× NuPage LDS Sample Buffer (Thermo Fisher, diluted from 4× with PBS) to the beads and heating for 10 minutes at 70° C.
For LC-MS, anti-FLAG immunoprecipitation was performed with beads cross-linked to the anti-FLAG antibody and the proteins competitively eluted with FLAG peptide. Eluted protein samples were electrophoresed into a NuPage 4-12% Bis-Tris gel, excised, and processed by the Fred Hutchinson Cancer Research Center Proteomics Core. Samples were reduced, alkylated, digested with trypsin, desalted, and run on the Orbitrap Eclipse Tribid Mass Spectrometer (Thermo Fisher). Proteomics data were analyzed using Proteome Discoverer 2.4 against a Uniprot human database that included common contaminants using Sequest HT and Percolator for scoring. […] Proteins that were identified in at least one sample from both independent experiments with at least 2 PSMs in one sample were assigned to one of ten categories: 1, candidates; 2, cytoskeletal associated; 3, cytoskeletal; 4, ribosome/translation associated; 5, proteasome associated; 6, membrane or extracellular; ER, golgi, or vesicle associated; 8, lipid metabolism; 9, chaperones; 10, nuclear import or nuclear membrane associated. The proteins in category 1 were further investigated for interactions with DUX4.

B1: STAT1 (protein)
chain: SQWYELQQLDSKFLEQVHQLYDDSFPMEIRQYLAQWLEKQDWEHAANDVSFATIRFHDLLSQLDDQYSRFSLENNFLLQHNIRKSKRNLQDNFQEDPIQMSMIIYSCLKEERKILENAQRFNQAQSGNIQSTVMLDKQKELDSKVRNVKDKVMCIEHEIKSLEDLQDEYDFKCKTLQNREHETNGVAKSDQKQEQLLLKKMYLMLDNKRKEVVHKIIELLNVTELTQNALINDELVEWKRRQQSACIGGPPNACLDQLQNWFTIVAESLQQVRQQLKKLEELEQKYTYEHDPITKNKQVLWDRTFSLFQQLIQSSFVVERQPCMPTHPQRPLVLKTGVQFTVKLRLLVKLQELNYNLKVKVLFDKDVNERNTVKGFRKFNILGTHTKVMNMEESTNGSLAAEFRHLQLKEQKNAGTRTNEGPLIVTEELHSLSFETQLCQPGLVIDLETTSLPVVVISNVSQLPSGWASILWYNMLVAEPRNLSFFLTPPCARWAQLSEVLSWQFSSVTKRGLNVDQLNMLGEKLLGPNASPDGLIPWTRFCKENINDKNFPFWLWIESILELIKKHLLPLWNDGCIMGFISKERERALLKDQQPGTFLLRFSESSREGAITFTWVERSQNGGEPDFHAVEPYTKKELSAVTFPDIIRNYKVMAAENIPENPLKYLYPNIDKDHAFGKYYSRPKEAPEPMELDGPKGTGYIKTELISVSEVHPSRLQTTDNLLPMSPEEFDEVSRIVGSVEFDSMMNTV
As for B1, the “4. + IFNG mix” value was 3 and the “4. mL1dL2 + Dox + IFNG” value is given as 18.

B2: USP11 (protein)
chain: MAVAPRLFGGLCFRFRDQNPEVAVEGRLPISHSCVGCRRERTAMATVAANPAAAAAAVAAAAAVTEDREPQHEELPGLDSQWRQIENGESGRERPLRAGESWFLVEKHWYKQWEAYVQGGDQDSSTFPGCINNATLFQDEINWRLKEGLVEGEDYVLLPAAAWHYLVSWYGLEHGQPPIERKVIELPNIQKVEVYPVELLLVRHNDLGKSHTVQFSHTDSIGLVLRTARERFLVEPQEDTRLWAKNSEGSLDRLYDTHITVLDAALETGQLIIMETRKKDGTWPSAQLHVMNNNMSEEDEDFKGQPGICGLTNLGNTCFMNSALQCLSNVPQLTEYFLNNCYLEELNFRNPLGMKGEIAEAYADLVKQAWSGHHRSIVPHVFKNKVGHFASQFLGYQQHDSQELLSFLLDGLHEDLNRVKKKEYVELCDAAGRPDQEVAQEAWQNHKRRNDSVIVDTFHGLFKSTLVCPDCGNVSVTFDPFCYLSVPLPISHKRVLEVFFIPMDPRRKPEQHRLVVPKKGKISDLCVALSKHTGISPERMMVADVFSHRFYKLYQLEEPLSSILDRDDIFVYEVSGRIEAIEGSREDIVVPVYLRERTPARDYNNSYYGLMLFGHPLLVSVPRDRFTWEGLYNVLMYRLSRYVTKPNSDDEDDGDEKEDDEEDKDDVPGPSTGGSLRDPEPEQAGPSSGVTNRCPFLLDNCLGTSQWPPRRRRKQLFTLQTVNSNGTSDRTTSPEEVHAQPYIAIDWEPEMKKRYYDEVEAEGYVKHDCVGYVMKKAPVRLQECIELFTTVETLEKENPWYCPSCKQHQLATKKLDLWMLPEILIIHLKRFSYTKFSREKLDTLVEFPIRDLDFSEFVIQPQNESNPELYKYDLIAVSNHYGGMRDGHYTTFACNKDSGQWHYFDDNSVSPVNENQIESKAAYVLFYQRQDVARRLLSPAGSSGAPASPACSSPPSSEFMDVN
Consider B2, for which the “4. mL1dL2 + Dox + IFNG” value is reported as 1.

B3: CKAP4 (protein)
chain: MPSAKQRGSKGGHGAASPSEKGAHPSGGADDVAKKPPPAPQQPPPPPAPHPQQHPQQHPQNQAHGKGGHRGGGGGGGKSSSSSSASAAAAAAAASSSASCSRRLGRALNFLFYLALVAAAAFSGWCVHHVLEEVQQVRRSHQDFSRQREELGQGLQGVEQKVQSLQATFGTFESILRSSQHKQDLTEKAVKQGESEVSRISEVLQKLQNEILKDLSDGIHVVKDARERDFTSLENTVEERLTELTKSINDNIAIFTEVQKRSQKEINDMKAKVASLEESEGNKQDLKALKEAVKEIQTSAKSREWDMEALRSTLQTMESDIYTEVRELVSLKQEQQAFKEAADTERLALQALTEKLLRSEESVSRLPEEIRRLEEELRQLKSDSHGPKEDGGFRHSEAFEALQQKSQGLDSRLQHVEDGVLSMQVASARQTESLESLLSKSQEHEQRLAALQGRLEGLGSSEADQDGLASTVRSLGETQLVLYGDVEELKRSVGELPSTVESLQKVQEQVHTLLSQDQAQAARLPPQDFLDRLSSLDNLKASVSQVEADLKMLRTAVDSLVAYSVKIETNENNLESAKGLLDDLRNDLDRLFVKVEKIHEKV
As for B3, the “4. + IFNG mix” value came out at 24 and the “4. mL1dL2 + Dox + IFNG” value came to 19.

Source of the values: patent US20250339531A1, “DUX4 POLYPEPTIDES AND NUCLEIC ACIDS FOR TREATING INFLAMMATORY AND AUTOIMMUNE CONDITIONS” (Fred Hutchinson Cancer Center, priority 2021, published 2025).
